The supplement of paper PMC12764529
± gives the half width of the 95% confidence interval.

Experiments:
[1] = folding stability dG unfold from trypsin proteolysis; higher = more stable
Outline: (§1)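 Sequencing followed digestion of designed mini-proteins with trypsin and chymotrypsin, each at 11 concentrations in threefold dilutions together with a no-protease condition. The mini-proteins were under 80 residues, had no cysteine, sat in a PA-tagged cDNA display construct, and were kept only if AlphaFold2 dimer inter-PAE was above 15. From the counts, Bayesian fitting gave K50, and unfolding free energy was derived against a sequence-predicted unfolded-state K50 and a shared folded-state K50, per protease or combined.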

[2] = folding stability dG unfold from chymotrypsin proteolysis; higher = more stable
Outline: as §1

[3] = folding stability dG unfold (combined trypsin and chymotrypsin); higher = more stable
Outline: as §1

Sequence	folding stability dG unfold [1] [kcal/mol]	folding stability dG unfold [2] [kcal/mol]	folding stability dG unfold [3] [kcal/mol]
SKPIPVKITIETKTNPNGEPITTITIDKGDKTYSLPLGNAKILEIDPEKQYIIIYNPETGSILILKPSDLSA [r9_1186_TrMRF]	2.54 ± 0.059	3.14 ± 0.06	2.95 ± 0.058
SAGGMEIKVTVEKREDGYLVVTVEKAESKEEAIEAIKKELREKYPDAEITITDKDGNTIVIKLKDLKSAGGS [r8_236_TrROS_Hall]	1.16 ± 0.071	2.52 ± 0.1	2.06 ± 0.067
SAKTLTIEELAKKLKEELEKKTGKKLSKEELKKKALELAKKLAEEKGLKIKSVKVEEKDGKLTVTVEVESAG [r14_147_TrROS_Hall]	3.2 ± 0.16	3.26 ± 0.082	2.84 ± 0.15
SAMANITANYYDPETGKVLAKDLPLPNGDEVHVTPNPVTGTVTVEWDGPEEALEVIKAALPPDWKIYPLSAG [r14_252_TrMRF]	0.712 ± 0.035	-0.0765 ± 0.16	0.362 ± 0.18
SAGGSAGGSAGDNYVMITHTIPFPPGEPLEIKIPPGAKIDDIDPERDPGNGTITVSIWFRSAGGSAGGSAGG [r11_701_TrROS]	0.491 ± 0.24	0.879 ± 0.17	0.73 ± 0.25
SGPAEGFEAELVEEYTLPETERVFVYRVTHPDGTEYVLVVVRNPDGTWEPVFVYRPDDPDALREALELLGSA [r9_1069_TrMRF]	3.11 ± 0.081	3.595 ± 0.022	3.47 ± 0.057
SAEKKTVRVVLEITLPPGLKPGDTITVKIEVDGKVYEAKILRVEEVPPGQTVRIVLELPAEDVKITIEPSAG [r14_554_TrROS_Hall]	3.21 ± 0.079	4.06 ± 0.08	3.81 ± 0.071
SAKMTAEEIAAALAEELGLEVVEVVEVDEETGKITIRVDGKLIEITVVEEDGELKIEVRVVDEETGEELSAG [r14_270_TrROS_Hall]	1.84 ± 0.087	0.852 ± 0.073	1.36 ± 0.18
SAGGMIAEIKPIPPNVPDGATATITFPDGTPAEAELRTEPLEDGPRRVVLKLKGKEGEIELEFVLPLSAGGS [r8_360_TrMRF]	0.16 ± 0.13	-0.488 ± 0.31	0.0112 ± 0.099
SAGGSAGGQEEEAEALAKEVEAPAREALPGTEVTVTVTVTRREDGSLEVDVTIEGDFALPAALLSAGGSAGG [r6_999_JUSTAS]	0.813 ± 0.065	0.636 ± 0.067	0.783 ± 0.24
SAGGSAASVVEKTLSPDGTLFVTIKVDPEKKSVPFSITTPDGTPVTVTLPPNTTKTVRVPLGEAALSAGGSA [r15_336_JUSTAS]	-0.678 ± 0.28	-0.553 ± 0.27	-0.39 ± 0.15
SAGGSELKPGDLVEVKVTVEFDEETGKATVEVEFNGKKLTVEVELEENQPPTVEVTLLVRIDKIEPSAGGSA [r2_113_TrROS_Hall]	2.36 ± 0.17	2.48 ± 0.1	2.46 ± 0.15
SAGGSAGGMVLVLRFPLGEPALIALYDPETGEVHVYDPGTRELLGTFPLPIEDFLELGAEAEPVSAGGSAGG [r6_831_TrMRF]	0.698 ± 0.051	2.2 ± 0.094	1.84 ± 0.12
SAGKKVKINIKLPEGAKVTKIEFDKKTKTIKITIYDKNGKKVLEMTFVYKDKNGKYKIVKKITVYLKKPSAG [r5_434_TrROS_Hall]	2.97 ± 0.27	4.19 ± 0.068	4.09 ± 0.27
SAGGSAGGSAGGLPEDDNYVRVKITFTIMMMEFDPKNGKMQMFPISIEIEIYIPPGAELSAGGSAGGSAGGS [r10_133_TrROS]	2.36 ± 0.12	3.6 ± 0.25	3.26 ± 0.22
SAGGSAGGPEIDLKEVRVFYPPGGERLVLVEVRDDVPLEQVRDWVLERGGEFYRELPNQILVRGSAGGSAGG [r6_543_TrMRF]	0.0648 ± 0.21	-0.179 ± 0.34	-0.00273 ± 0.18
SAGGSMEEEFAARGATVTIDPEKGVITVTFYEEVTQPDGTPVLRRKGTLTIEVPGNDPSQALAKALEESAGG [r13_924_JUSTAS]	1.41 ± 0.032	2.1 ± 0.088	1.96 ± 0.12
SAGGSAGGSAGGAIVTTTTTKAPVFAPDGTVVAEITTTTVTVILPETPPSLLPEVLERLASAGGSAGGSAGG [r7_450_JUSTAS]	0.553 ± 0.06	0.801 ± 0.076	0.681 ± 0.16
SAGGSAGGSAGMVITKDPNGNYTVDLVLPDGTPLDSGTITLEEVEKILKERGIPLKEIFGSAGGSAGGSAGG [r11_521_JUSTAS]	-0.271 ± 0.27	0.543 ± 0.048	0.361 ± 0.12
SAGGSAGGSAGGKVYFLPDNTVVYELPDGLYLAVTVNENGEPSRTLYRVLSPTEIKPFPLSAGGSAGGSAGG [r7_423_TrMRF]	1.65 ± 0.024	1.66 ± 0.034	1.72 ± 0.035
SAGGSASLEEVIESVTKPLGAKGEIDPETGVTYVQDPSGENLTLETEDGRPLKVTYEPEGKWTAVESAGGSA [r15_256_JUSTAS]	0.301 ± 0.046	-0.199 ± 0.45	0.24 ± 0.28
